Measured values: publication PMC10415141

Assays:
MCM8;MCM9 680 = MCM8;MCM9 680 (Homo sapiens;Homo sapiens, UniProt Q9UJA3;Q9NXL9 1-840;1-680, |); test: S1 nuclease protection
MCM8 WB;MCM9 680 WB = MCM8 WB;MCM9 680 WB (Homo sapiens;Homo sapiens, UniProt Q9UJA3;Q9NXL9 1-840;1-680, E519Q|E415Q); test: S1 nuclease protection
MCM8 WB;MCM9 680 WB, sequence (Q9UJA3 whole entry E519Q, chain 1 of 2): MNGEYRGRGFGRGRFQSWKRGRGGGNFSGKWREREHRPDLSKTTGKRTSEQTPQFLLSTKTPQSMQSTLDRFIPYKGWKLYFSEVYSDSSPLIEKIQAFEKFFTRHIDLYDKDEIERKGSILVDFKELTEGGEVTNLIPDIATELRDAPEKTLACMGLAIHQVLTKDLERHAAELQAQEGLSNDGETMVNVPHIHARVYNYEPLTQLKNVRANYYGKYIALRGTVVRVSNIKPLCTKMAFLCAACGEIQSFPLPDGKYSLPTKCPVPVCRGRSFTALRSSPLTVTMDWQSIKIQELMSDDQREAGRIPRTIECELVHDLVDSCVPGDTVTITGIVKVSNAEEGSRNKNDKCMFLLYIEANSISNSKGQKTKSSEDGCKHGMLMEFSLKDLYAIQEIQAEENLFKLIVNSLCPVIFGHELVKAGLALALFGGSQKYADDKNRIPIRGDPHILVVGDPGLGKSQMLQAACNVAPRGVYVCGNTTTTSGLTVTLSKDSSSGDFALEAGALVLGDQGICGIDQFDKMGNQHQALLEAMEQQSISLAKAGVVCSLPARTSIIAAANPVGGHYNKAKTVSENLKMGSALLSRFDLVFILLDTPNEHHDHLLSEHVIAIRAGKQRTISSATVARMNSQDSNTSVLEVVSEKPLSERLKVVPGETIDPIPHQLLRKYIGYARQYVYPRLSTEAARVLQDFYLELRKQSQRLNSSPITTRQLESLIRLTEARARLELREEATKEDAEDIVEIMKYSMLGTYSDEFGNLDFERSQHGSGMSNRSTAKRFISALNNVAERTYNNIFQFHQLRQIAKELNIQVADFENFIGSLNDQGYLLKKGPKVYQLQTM
MCM8 WB;MCM9 680 WB, sequence (Q9NXL9 1-680 E415Q, chain 2 of 2): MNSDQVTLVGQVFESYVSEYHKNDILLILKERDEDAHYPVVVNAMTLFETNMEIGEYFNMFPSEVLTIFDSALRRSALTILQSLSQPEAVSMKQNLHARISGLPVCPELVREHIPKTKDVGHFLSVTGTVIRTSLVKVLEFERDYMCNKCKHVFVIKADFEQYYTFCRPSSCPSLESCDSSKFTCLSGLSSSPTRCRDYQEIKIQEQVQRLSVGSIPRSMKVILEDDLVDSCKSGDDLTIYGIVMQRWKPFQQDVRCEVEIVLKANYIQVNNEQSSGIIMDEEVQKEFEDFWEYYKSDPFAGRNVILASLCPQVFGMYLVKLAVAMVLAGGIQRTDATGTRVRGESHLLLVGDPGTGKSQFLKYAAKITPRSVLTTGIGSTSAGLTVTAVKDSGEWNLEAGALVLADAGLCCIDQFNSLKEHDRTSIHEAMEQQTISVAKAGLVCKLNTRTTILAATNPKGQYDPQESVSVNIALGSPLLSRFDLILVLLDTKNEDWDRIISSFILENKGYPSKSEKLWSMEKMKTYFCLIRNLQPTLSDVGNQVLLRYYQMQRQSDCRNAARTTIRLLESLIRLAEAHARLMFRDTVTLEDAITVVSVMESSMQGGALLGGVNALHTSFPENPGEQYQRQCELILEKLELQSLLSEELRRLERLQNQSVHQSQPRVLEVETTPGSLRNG

MCM8;MCM9 680, sequence (Q9UJA3 whole entry, chain 1 of 2): as the sequence (Q9UJA3 whole entry E519Q, chain 1 of 2) above, with Q519E counted along it
MCM8;MCM9 680, sequence (Q9NXL9 1-680, chain 2 of 2): as the sequence (Q9NXL9 1-680 E415Q, chain 2 of 2) above, with Q415E counted along it

B1: 3' long arm fork (DNA228/15Cy3) (mixed)
DNA 1: TTTTTTTTTTGCCGGTCGGGGTGGGTGGGAAGCGTAGGGAGAGGTG
DNA 2: CACCTCTCCCTACGCTTCCCACCCACCCCGACCGGCATCTGCTATGGTACGCTGAGCGAGAGTAGC
Q: Does B1 bind (MCM8;MCM9 680)?
A: Result: binds

Q: Does B1 bind (MCM8 WB;MCM9 680 WB)?
A: Result: binds
